Reference: PMC10153262 (bioRxiv, 2023)

Tests used:
Assay in all cases: pull-down
[1] = molecular target: GINIP WT, C-terminally His-tagged (pET21a(+)-GINIP-His) (human, UniProt Q9UPV7 1-400)
GINIP ∆N16 = GINIP ∆N16 (human, UniProt Q9UPV7 17-400)
[2] = molecular target: Myristoylated GINIP (myr-GINIP), C-terminally His-tagged (human, UniProt Q9UPV7 1-400, myristoylated (co-expression with N-myristoyl transferase))

Measured: binding result

Myristoylated GINIP (myr-GINIP), C-terminally His-tagged, sequence (Q9UPV7 whole entry): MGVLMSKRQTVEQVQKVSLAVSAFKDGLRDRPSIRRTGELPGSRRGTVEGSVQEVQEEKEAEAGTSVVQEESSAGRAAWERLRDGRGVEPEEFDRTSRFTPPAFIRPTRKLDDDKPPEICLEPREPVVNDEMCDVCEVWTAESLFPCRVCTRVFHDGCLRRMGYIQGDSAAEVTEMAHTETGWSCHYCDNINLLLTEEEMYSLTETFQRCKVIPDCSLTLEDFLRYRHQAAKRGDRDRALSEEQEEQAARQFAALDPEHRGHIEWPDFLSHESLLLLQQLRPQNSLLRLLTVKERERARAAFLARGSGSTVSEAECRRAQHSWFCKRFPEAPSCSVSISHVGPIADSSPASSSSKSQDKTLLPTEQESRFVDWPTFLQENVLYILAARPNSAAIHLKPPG
GINIP WT, C-terminally His-tagged (pET21a(+)-GINIP-His), sequence (Q9UPV7 whole entry): as above
GINIP ∆N16, sequence (Q9UPV7 17-400): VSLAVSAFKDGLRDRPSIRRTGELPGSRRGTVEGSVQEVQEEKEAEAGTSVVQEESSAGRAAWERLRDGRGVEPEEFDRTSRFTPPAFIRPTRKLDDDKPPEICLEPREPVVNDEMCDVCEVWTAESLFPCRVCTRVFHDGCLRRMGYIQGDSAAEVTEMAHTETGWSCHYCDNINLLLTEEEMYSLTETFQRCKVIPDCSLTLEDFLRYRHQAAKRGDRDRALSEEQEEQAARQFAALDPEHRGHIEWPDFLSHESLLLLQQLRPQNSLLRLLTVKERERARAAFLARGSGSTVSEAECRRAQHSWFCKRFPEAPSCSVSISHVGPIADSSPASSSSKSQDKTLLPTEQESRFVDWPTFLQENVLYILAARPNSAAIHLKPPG

B1: GST-Gαi3 (natural protein)
chain: MGCTLSAEDKAAVERSKMIDRNLREDGEKAAKEVKLLLLGAGESGKSTIVKQMKIIHEDGYSEDECKQYKVVVYSNTIQSIIAIIRAMGRLKIDFGEAARADDARQLFVLAGSAEEGVMTSELAGVIKRLWRDGGVQACFSRSREYQLNDSASYYLNDLDRISQTNYIPTQQDVLRTRVKTTGIVETHFTFKELYFKMFDVGGQRSERKKWIHCFEGVTAIIFCVALSDYDLVLAEDEEMNRMHESMKLFDSICNNKWFTDTSIILFLNKKDLFEEKIKRSPLTICYPEYTGSNTYEEAAAYIQCQFEDLNRRKDTKEVYTHFTCATDTKNVQFVFDAVTDVIIKNNLKECGLY
binds: all assays above
